Laboratory results taken from PMC10979513 (Progress in neurobiology, 2024).

Target: T1, recombinant μ4 C-terminal domain (human, residues 160–453) (human, UniProt O00189 160-453)
T1 sequence (looked up): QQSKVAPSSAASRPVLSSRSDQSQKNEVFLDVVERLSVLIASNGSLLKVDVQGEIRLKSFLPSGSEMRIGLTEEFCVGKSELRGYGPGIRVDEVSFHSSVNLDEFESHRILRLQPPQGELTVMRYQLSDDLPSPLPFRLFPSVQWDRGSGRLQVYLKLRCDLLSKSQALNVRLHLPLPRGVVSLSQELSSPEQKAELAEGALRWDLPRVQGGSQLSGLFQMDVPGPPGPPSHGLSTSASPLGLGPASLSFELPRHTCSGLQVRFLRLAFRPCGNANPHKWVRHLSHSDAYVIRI
Assay: ITC

Kd: 26.2 µM
Binder: YPAAISSFDR [ApoER2 peptide YPAAISSFDR]
